According to US20260092093A1 (TJ BIOPHARMA SHANGHAI, published 2026):

T1: recombinant hIL-18Rα extracellular domain (human, UniProt Q13478 22-329, biotin label (selection) or fluorescent probe (single-clone FACS), sites not given)
T1 construct: extracellular domain; also called hIL-18Rα ECD; hIL-18Rα-ECD
T1 sequence (looked up): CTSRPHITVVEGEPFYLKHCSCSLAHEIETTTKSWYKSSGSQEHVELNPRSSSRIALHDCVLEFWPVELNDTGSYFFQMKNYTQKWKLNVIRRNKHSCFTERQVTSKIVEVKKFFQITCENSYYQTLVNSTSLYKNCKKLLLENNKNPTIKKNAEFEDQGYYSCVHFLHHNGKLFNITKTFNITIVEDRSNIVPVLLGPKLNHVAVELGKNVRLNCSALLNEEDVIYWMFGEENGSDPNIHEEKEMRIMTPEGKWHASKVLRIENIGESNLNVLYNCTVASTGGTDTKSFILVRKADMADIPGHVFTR

B1: SEQ ID NO 61 (ligand)
chain: YFPKLKSKLSVIRNLNDQVLFIDQGNRPLFEDMTDSDCRDNAPRTIFIISMYKFSTERGMAVTISVKCEKISTLSCENKIISFKEMNPPDPIKDTKSDIIFFQRSVPGHDNKMQFESSSYEGYFLACEKERDLFKLILKKEDELGDRSIMFTVQNED
B2: SEQ ID NO 84 (ligand)
chain: YFPKLKSKLSVIRNLNDQVLFIDQGNRPLFEDMTDSDCRDNAPRTIFIISMYKMSSARGMAVTISVKCEKISTLSCENKIISFKEMNPPDGIKDTKSDIIFFQSSVPGHDNKMQFESSSYEGYFLACEKERDLFKLILKKEDELGDRSIMFTVQNED
B3: SEQ ID NO 82 (ligand)
chain: YFPKLRSKLSVIRNLNDQVLFIDQGNRPLFEDMTDSDCRDNAPRTIFIISMYKLSTIRGMAVTISVKCEKISTLSCENKIISFKEMNPPDYIKDTKSDIIFFQRSVPGHDNKMQFESSSYEGYFLACEKERDLFKLILKKEDELGDRSIMFTVQNED
B4: SEQ ID NO 68 (ligand)
chain: YFPKLKSKLSVIRNLNDQVLFIDQGNRPLFEDMTDSDCRDNAPRTIFIISMYKWSPWRGMAVTISVKCEKISTLSCENKIISFKEMNPPDNIKDTKSDIIFFQTSVPGHDNKMQFESSSYEGYFLACEKERDLFKLILKKEDELGDRSIMFTVQNED
B5: SEQ ID NO 76 (ligand)
chain: YFPKLKSKLSVIRNLNDQVLFIDQGNRPLFEDMTDSDCRDNAPRTIFIISMYKWSWARGMAVTISVKCEKISTLSCENKIISFKEMNPPDLIKDTKSDIIFFQYSVPGHDNKMQFESSSYEGYFLACEKERDLFKLILKKEDELGDRSIMFTVQNED
B6: SEQ ID NO 86 (ligand)
chain: YFPKLNSKLSVIRNLNDQVLFIDQGNRPLFEDMTDSDCRDNAPRTIFIISMYKLSTVRGMAVTISVKCEKISTLSCENKIISFKEMNPPDPIKDTKSDIIFFQHSVPGHDNKMQFESSSYEGYFLACEKERDLFKLILKKEDELGDRSIMFTVQNED
B7: SEQ ID NO 83 (ligand)
chain: YFWKLWSKLSVIRNLNDQVLFIDQGNRPLFEDMTDSDCRDNAPRTIFIISMYKPSNFRGMAVTISVKCEKISTLSCENKIISFKEMNPPDVIKDTKSDIIFFQGSVPGHDNKMQFESSSYEGYFLACEKERDLFKLILKKEDELGDRSIMFTVQNED
B8: SEQ ID NO 64 (ligand)
chain: YFPKLNSKLSVIRNLNDQVLFIDQGNRPLFEDMTDSDCRDNAPRTIFIISMYKVPTARGMAVTISVKCEKISTLSCENKIISFKEMNPPDAIKDTKSDIIFFQRSVPGHDNKMQFESSSYEGYFLACEKERDLFKLILKKEDELGDRSIMFTVQNED
B9: SEQ ID NO 77 (ligand)
chain: YFPKLRSKLSVIRNLNDQVLFIDQGNRPLFEDMTDSDCRDNAPRTIFIISMYKHSYTRGMAVTISVKCEKISTLSCENKIISFKEMNPPDIIKDTKSDIIFFQYSVPGHDNKMQFESSSYEGYFLACEKERDLFKLILKKEDELGDRSIMFTVQNED
B10: SEQ ID NO 85 (ligand)
chain: YFPKLKSKLSVIRNLNDQVLFIDQGNRPLFEDMTDSDCRDNAPRTIFIISMYKWSGGRGMAVTISVKCEKISTLSCENKIISFKEMNPPDSIKDTKSDIIFFQFSVPGHDNKMQFESSSYEGYFLACEKERDLFKLILKKEDELGDRSIMFTVQNED
B11: SEQ ID NO 63 (ligand)
chain: YFPKLQSKLSVIRNLNDQVLFIDQGNRPLFEDMTDSDCRDNAPRTIFIISMYKLSTPRGMAVTISVKCEKISTLSCENKIISFKEMNPPDAIKDTKSDIIFFQRSVPGHDNKMQFESSSYEGYFLACEKERDLFKLILKKEDELGDRSIMFTVQNED
B12: SEQ ID NO 75 (ligand)
chain: YFPKLGSKLSVIRNLNDQVLFIDQGNRPLFEDMTDSDCRDNAPRTIFIISMYKHSSRRGMAVTISVKCEKISTLSCENKIISFKEMNPPDVIKDTKSDIIFFQNSVPGHDNKMQFESSSYEGYFLACEKERDLFKLILKKEDELGDRSIMFTVQNED
B13: SEQ ID NO 87 (ligand)
chain: YFPKLGSKLSVIRNLNDQVLFIDQGNRPLFEDMTDSDCRDNAPRTIFIISMYKGSHFRGMAVTISVKCEKISTLSCENKIISFKEMNPPDGIKDTKSDIIFFQSSVPGHDNKMQFESSSYEGYFLACEKERDLFKLILKKEDELGDRSIMFTVQNED
B14: SEQ ID NO 79 (ligand)
chain: YFPKLGSKLSVIRNLNDQVLFIDQGNRPLFEDMTDSDCRDNAPRTIFIISMYKWSQPRGMAVTISVKCEKISTLSCENKIISFKEMNPPDVIKDTKSDIIFFQYSVPGHDNKMQFESSSYEGYFLACEKERDLFKLILKKEDELGDRSIMFTVQNED
B15: SEQ ID NO 69 (ligand)
chain: YFPKLVSKLSVIRNLNDQVLFIDQGNRPLFEDMTDSDCRDNAPRTIFIISMYKWSAIRGMAVTISVKCEKISTLSCENKIISFKEMNPPDVIKDTKSDIIFFQTSVPGHDNKMQFESSSYEGYFLACEKERDLFKLILKKEDELGDRSIMFTVQNED
B16: SEQ ID NO 80 (ligand)
chain: YFPKLRSKLSVIRNLNDQVLFIDQGNRPLFEDMTDSDCRDNAPRTIFIISMYKWSYPRGMAVTISVKCEKISTLSCENKIISFKEMNPPDGIKDTKSDIIFFQFSVPGHDNKMQFESSSYEGYFLACEKERDLFKLILKKEDELGDRSIMFTVQNED
B17: SEQ ID NO 70 (ligand)
chain: YFPKLRSKLSVIRNLNDQVLFIDQGNRPLFEDMTDSDCRDNAPRTIFIISMYKWSGGRGMAVTISVKCEKISTLSCENKIISFKEMNPPDAIKDTKSDIIFFQLSVPGHDNKMQFESSSYEGYFLACEKERDLFKLILKKEDELGDRSIMFTVQNED
B18: SEQ ID NO 67 (ligand)
chain: YFTKLRSKLSVIRNLNDQVLFIDQGNRPLFEDMTDSDCRDNAPRTIFIISMYKLSHLRGIAVTISVKCEKISTLSCENKIISFKEMNPPDAIKDTKSDIIFFQSSVPGHDNKMQFESSSYEGYFLACEKERDLFKLILKKEDELGDRSIMFTVQNED
B19: SEQ ID NO 78 (ligand)
chain: YFKKLPSKLSVIHNLNDQVLFIDQGNRPLFEDMTDSDCRDNAPRTIFIISMYKLSSERGMAVTISVKCEKISTLSCENKIISFKEMNPPDNIKDTKSDIIFFQRSVPGHDNKMQFESSSYEGYFLACEKERDLFKLILKKEDELGDRSIMFTVQNED
B20: SEQ ID NO 71 (ligand)
chain: YFPKLYSKLSVIRNLNDQVLFIDQGNRPLFEDMTDSDCRDNAPRTIFIISMYKHSTNRGMAVTISVKCEKISTLSCENKIISFKEMNPPDGIKDTKSDIIFFQRSVPGHDNKMQFESSSYEGYFLACEKERDLFKLILKKEDELGDRSIMFTVQNED

What follows are binders tested against T1, recombinant hIL-18Rα extracellular … (assay: single-clone FACS, yeast display, 10 nM labelled hIL-18Rα ECD).
Description: Following the screens described in Example 2, single clone FACS analysis was performed to verify the binding of selected yeast cell surface-expressed IL-18 variant polypeptides from Round 4 and Round 5 to 10 nM hIL-18Rα-ECD. Briefly, each yeast clone at the same density was incubated with 10 nM IL-18Rα-ECD labeled by fluorescent probe, respectively, followed by washing step. Then the ratio of fluorescent positive IL-18Rα ECD binding yeasts in the population of each clone were analyzed.

Going from B1 to B2, the “% of fluorescence positive cells” value falls from 76.1% to 11.5%.

First: B3
Second: B4
The “% of fluorescence positive cells” value of the first is lower: 14.5% for the first, 60.9% for the second.

First: B5
Second: B6
The “% of fluorescence positive cells” value of the first is higher: 29.7% for the first, 9.28% for the second.

Going from B7 to B8, the “% of fluorescence positive cells” value rises from 13.5% to 70.8%.

Going from B9 to B10, the “% of fluorescence positive cells” value falls from 28.4% to 10.8%.

First: B11
Second: B12
The “% of fluorescence positive cells” value of the first is higher: 72.6% for the first, 30% for the second.

Compared with B13, B14 is higher in “% of fluorescence positive cells” value: 6.12% for the first, 21.5% for the second.

Going from B15 to B16, the “% of fluorescence positive cells” value falls from 60.9% to 18.6%.

Going from B17 to B18, the “% of fluorescence positive cells” value rises from 51.3% to 66.4%.

Compared with B19, B20 is higher in “% of fluorescence positive cells” value: 27.8% for the first, 45.1% for the second.
